Results taken from patent US20260167699A1 (Chugai, published 2026).
Substitutions are numbered along the chain they refer to. Values belong to the binder of their own block, whether it stands above or below them.

How the values were obtained:
[1] = target: T1, FcγRIa extracellular domain, His-tagged (human, UniProt P12314 16-292); assay: SPR, vs GpH7-A5/GpH7-B3/GpL16-k0 =100
T1 construct: extracellular domain; also called 1a

[2] = target: T2, FcγRIIa(R) extracellular domain, His-tagged (human, UniProt P12318 34-217); assay: SPR, vs GpH7-A5/GpH7-B3/GpL16-k0 =100
T2 construct: extracellular domain; also called 2aR
T2 sequence: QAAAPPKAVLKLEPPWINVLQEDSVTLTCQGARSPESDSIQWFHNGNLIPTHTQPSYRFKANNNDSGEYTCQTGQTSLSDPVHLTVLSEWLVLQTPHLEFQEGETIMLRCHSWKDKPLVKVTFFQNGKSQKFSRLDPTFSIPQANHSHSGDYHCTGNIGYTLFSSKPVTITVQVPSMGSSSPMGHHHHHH

[3] = target: T3, FcγRIIIa extracellular domain, His-tagged (human, UniProt P08637 17-208); assay: SPR, vs GpH7-A5/GpH7-B3/GpL16-k0 =100
T3 construct: extracellular domain; also called 3a

[4] = target: T4, FcγRIIa(H) extracellular domain, His-tagged (human, UniProt P12318 34-217); assay: SPR, vs GpH7-A5/GpH7-B3/GpL16-k0 =100
T4 construct: extracellular domain; also called 2aH
T4 sequence: T2 sequence with R134H

[5] = target: T5, FcγRIIb extracellular domain, His-tagged (human, UniProt P31994 43-217); assay: SPR, vs GpH7-A5/GpH7-B3/GpL16-k0 =100
T5 construct: extracellular domain; also called 2b
T5 sequence: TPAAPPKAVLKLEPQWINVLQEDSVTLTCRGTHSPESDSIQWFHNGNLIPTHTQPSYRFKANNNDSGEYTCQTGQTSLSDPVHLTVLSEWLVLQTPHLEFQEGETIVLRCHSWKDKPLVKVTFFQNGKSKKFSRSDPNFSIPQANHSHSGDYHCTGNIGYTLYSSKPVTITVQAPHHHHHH

FcγRIa = target: T6, FcγRIa (human, UniProt P12314 16-292); assay: SPR, relative to GpH7-A5/GpH7-B3/GpL16-k0 =100
T6 construct: extracellular domain; also called 1a

FcγRIIa(H) = target: T7, FcγRIIa(H) (human, UniProt P12318 34-217); assay: SPR, relative to GpH7-A5/GpH7-B3/GpL16-k0 =100
T7 construct: extracellular domain; also called 2aH
T7 sequence: T2 sequence with R134H

FcγRIIa(R) = target: T8, FcγRIIa(R) (human, UniProt P12318 34-217); assay: SPR, relative to GpH7-A5/GpH7-B3/GpL16-k0 =100
T8 construct: extracellular domain; also called 2aR
T8 sequence: T2 sequence

FcγRIIb = target: T9, FcγRIIb (human, UniProt P31994 43-217); assay: SPR, relative to GpH7-A5/GpH7-B3/GpL16-k0 =100
T9 construct: extracellular domain; also called 2b
T9 sequence: T5 sequence

T3 sequence (P08637 other isoform, or with tags, fused parts or gaps): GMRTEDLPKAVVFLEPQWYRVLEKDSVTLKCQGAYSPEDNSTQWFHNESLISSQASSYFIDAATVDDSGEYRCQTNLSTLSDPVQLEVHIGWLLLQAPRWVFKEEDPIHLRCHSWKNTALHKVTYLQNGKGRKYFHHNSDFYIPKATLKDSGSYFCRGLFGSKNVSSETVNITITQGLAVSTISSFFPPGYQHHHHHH
T1 sequence (P12314 other isoform, or with tags, fused parts or gaps): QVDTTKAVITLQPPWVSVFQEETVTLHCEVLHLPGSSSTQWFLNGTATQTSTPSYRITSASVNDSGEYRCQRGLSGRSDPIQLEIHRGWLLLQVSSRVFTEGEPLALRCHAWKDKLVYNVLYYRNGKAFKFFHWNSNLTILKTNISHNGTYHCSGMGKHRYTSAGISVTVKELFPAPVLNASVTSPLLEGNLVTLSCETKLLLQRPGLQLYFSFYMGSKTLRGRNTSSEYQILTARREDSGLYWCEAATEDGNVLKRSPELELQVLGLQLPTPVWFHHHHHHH
T6 sequence (P12314 other isoform, or with tags, fused parts or gaps): as above

B2: GpH7-A5/GpH7-B3 variant S324_14T/GpL16-k0 (antibody, human IgG1, kappa)
heavy 1: not shown
heavy 2: not shown
light: DIVMTQSPLSLPVTPGEPASISCQASESLVHSNRNTYLHWYLQKPGQSPQLLIYKVSNRFSGVPDRFSGSGSGTDFTLKISRVEAEDVGVYYCSQNTHVPPTFGQGTKVEIERTVAAPSVFIFPPSDEQLKSGTASVVCLLNNFYPREAKVQWKVDNALQSGNSQESVTEQDSKDSTYSLSSTLTLSKADYEKHKVYACEVTHQGLSSPVTKSFNRGEC
notes: He Ab: heterodimerized IgG1, one H chain mutated
He/Con 1a (FcγRIa): 114%
He/Con 2aH (FcγRIIa(H)): 107%
He/Con 2aR (FcγRIIa(R)): 93.9%
He/Con 2b (FcγRIIb): 115%

B4: GpH7-A5/GpH7-B3 variant A330_09D/GpL16-k0 (antibody, human IgG1, kappa)
heavy 1: not shown
heavy 2: not shown
light: B2 light
notes: as for B2
He/Con 1a (FcγRIa): 112%
He/Con 2aH (FcγRIIa(H)): 67.8%
He/Con 2aR (FcγRIIa(R)): 79.5%
He/Con 2b (FcγRIIb): 62.8%

B6: GpH7-A5/GpH7-B3 variant A327_05P/GpL16-k0 (antibody, human IgG1, kappa)
heavy 1: not shown
heavy 2: not shown
light: B2 light
notes: as for B2
He/Con 1a (FcγRIa): 102%
He/Con 2aH (FcγRIIa(H)): 67.9%
He/Con 2aR (FcγRIIa(R)): 80.6%
He/Con 2b (FcγRIIb): 86.3%

B7: GpH7-A5/GpH7-B3 variant A327_18N/GpL16-k0 (antibody, human IgG1, kappa)
heavy 1: not shown
heavy 2: not shown
light: B2 light
notes: as for B2
He/Con 1a (FcγRIa): 100%
He/Con 2aH (FcγRIIa(H)): 79%
He/Con 2aR (FcγRIIa(R)): 114%
He/Con 2b (FcγRIIb): 141%

B9: GpH7-A5/GpH7-B3 variant A330_10E/GpL16-k0 (antibody, human IgG1, kappa)
heavy 1: not shown
heavy 2: not shown
light: B2 light
notes: as for B2
He/Con 1a (FcγRIa): 111%
He/Con 2aH (FcγRIIa(H)): 87.7%
He/Con 2aR (FcγRIIa(R)): 97.2%
He/Con 2b (FcγRIIb): 79.2%

B10: GpH7-A5/GpH7-B3 variant A327_20W/GpL16-k0 (antibody, human IgG1, kappa)
heavy 1: not shown
heavy 2: not shown
light: B2 light
notes: as for B2
He/Con 1a (FcγRIa): 100%
He/Con 2aH (FcγRIIa(H)): 76.6%
He/Con 2aR (FcγRIIa(R)): 95.9%
He/Con 2b (FcγRIIb): 98.2%

B13: GpH7-A5/GpH7-B3 variant A330_04F/GpL16-k0 (antibody, human IgG1, kappa)
heavy 1: not shown
heavy 2: not shown
light: B2 light
notes: as for B2
He/Con 1a (FcγRIa): 110%
He/Con 2aH (FcγRIIa(H)): 104%
He/Con 2aR (FcγRIIa(R)): 112%
He/Con 2b (FcγRIIb): 105%

Further lines, results first:

He/Con 1a [1]: 104 % of control
He/Con 2aR [2]: 79.8 % of control
He/Con 3a [3]: 53.8 % of control
He/Con 2aH [4]: 80 % of control
He/Con 2b [5]: 87.3 % of control
B1: GpH7-A5/GpH7-B3 variant S239_19Q/GpL16-k0 (antibody, human IgG1, kappa)
heavy 1: not shown
heavy 2: not shown
light: B2 light

He/Con 1a [1]: 102 % of control
He/Con 2aR [2]: 188 % of control
He/Con 3a [3]: 90.9 % of control
He/Con 2aH [4]: 103 % of control
He/Con 2b [5]: 398 % of control
B3: GpH7-A5/GpH7-B3 variant S267_10E/GpL16-k0 (antibody, human IgG1, kappa)
heavy 1: not shown
heavy 2: not shown
light: B2 light

He/Con 1a [1]: 96.5 % of control
He/Con 2aR [2]: 161 % of control
He/Con 3a [3]: 84.9 % of control
He/Con 2aH [4]: 84.8 % of control
He/Con 2b [5]: 264 % of control
B5: GpH7-A5/GpH7-B3 variant V266_06M/GpL16-k0 (antibody, human IgG1, kappa)
heavy 1: not shown
heavy 2: not shown
light: B2 light

He/Con 1a (FcγRIa): 109%
He/Con 2aH (FcγRIIa(H)): 110%
He/Con 2aR (FcγRIIa(R)): 117%
He/Con 2b (FcγRIIb): 103%
B8: GpH7-A5/GpH7-B3 variant A330_19Q/GpL16-k0 (antibody, human IgG1, kappa)
heavy 1: not shown
heavy 2: not shown
light: B2 light
notes: as for B2

He/Con 1a (FcγRIa): 111%
He/Con 2aH (FcγRIIa(H)): 93.8%
He/Con 2aR (FcγRIIa(R)): 97.6%
He/Con 2b (FcγRIIb): 86%
B11: GpH7-A5/GpH7-B3 variant A330_20W/GpL16-k0 (antibody, human IgG1, kappa)
heavy 1: not shown
heavy 2: not shown
light: B2 light
notes: as for B2

He/Con 1a [1]: 99.2 % of control
He/Con 2aR [2]: 145 % of control
He/Con 3a [3]: 64.3 % of control
He/Con 2aH [4]: 61.9 % of control
He/Con 2b [5]: 228 % of control
B12: GpH7-A5/GpH7-B3 variant S267_19Q/GpL16-k0 (antibody, human IgG1, kappa)
heavy 1: not shown
heavy 2: not shown
light: B2 light

He/Con 1a [1]: 105 % of control
He/Con 2aR [2]: 167 % of control
He/Con 3a [3]: 149 % of control
He/Con 2aH [4]: 121 % of control
He/Con 2b [5]: 256 % of control
B14: GpH7-A5/GpH7-B3 variant S267_02A/GpL16-k0 (antibody, human IgG1, kappa)
heavy 1: not shown
heavy 2: not shown
light: B2 light

He/Con 1a (FcγRIa): 108%
He/Con 2aH (FcγRIIa(H)): 102%
He/Con 2aR (FcγRIIa(R)): 107%
He/Con 2b (FcγRIIb): 87.9%
B15: GpH7-A5/GpH7-B3 variant A330_14T/GpL16-k0 (antibody, human IgG1, kappa)
heavy 1: not shown
heavy 2: not shown
light: B2 light
notes: as for B2
